Data: patent US20180155451A1 (published 2018)

B1: GpH7-B3 variant S298_15Y/GpL16-k0 (antibody, human IgG1, kappa)
heavy: not shown
light: DIVMTQSPLSLPVTPGEPASISCQASESLVHSNRNTYLHWYLQKPGQSPQLLIYKVSNRFSGVPDRFSGSGSGTDFTLKISRVEAEDVGVYYCSQNTHVPPTFGQGTKVEIERTVAAPSVFIFPPSDEQLKSGTASVVCLLNNFYPREAKVQWKVDNALQSGNSQESVTEQDSKDSTYSLSSTLTLSKADYEKHKVYACEVTHQGLSSPVTKSFNRGEC
notes: mutation in both H chains; also called Ho Ab S298_15Y; S298Y
B2: GpH7-B3 variant T335_15Y/GpL16-k0 (antibody, human IgG1, kappa)
heavy: not shown
light: B1 light
notes: mutation in both H chains; also called Ho Ab T335_15Y; T335Y
B3: GpH7-B3 variant S324_18N/GpL16-k0 (antibody, human IgG1, kappa)
heavy: not shown
light: B1 light
notes: mutation in both H chains; also called Ho Ab S324_18N; S324N
B4: GpH7-B3 variant T335_12R/GpL16-k0 (antibody, human IgG1, kappa)
heavy: not shown
light: B1 light
notes: mutation in both H chains; also called Ho Ab T335_12R; T335R
B5: GpH7-B3 variant S324_02A/GpL16-k0 (antibody, human IgG1, kappa)
heavy: not shown
light: B1 light
notes: mutation in both H chains; also called Ho Ab S324_02A; S324A
B6: GpH7-A5/GpH7-B3 variant S267_08L/GpL16-k0 (antibody, human IgG1, kappa)
heavy 1: not shown
heavy 2: not shown
light: B1 light
notes: mutation in one H chain only; also called He Ab S267_08L; S267L
B7: GpH7-B3 variant S337_07I/GpL16-k0 (antibody, human IgG1, kappa)
heavy: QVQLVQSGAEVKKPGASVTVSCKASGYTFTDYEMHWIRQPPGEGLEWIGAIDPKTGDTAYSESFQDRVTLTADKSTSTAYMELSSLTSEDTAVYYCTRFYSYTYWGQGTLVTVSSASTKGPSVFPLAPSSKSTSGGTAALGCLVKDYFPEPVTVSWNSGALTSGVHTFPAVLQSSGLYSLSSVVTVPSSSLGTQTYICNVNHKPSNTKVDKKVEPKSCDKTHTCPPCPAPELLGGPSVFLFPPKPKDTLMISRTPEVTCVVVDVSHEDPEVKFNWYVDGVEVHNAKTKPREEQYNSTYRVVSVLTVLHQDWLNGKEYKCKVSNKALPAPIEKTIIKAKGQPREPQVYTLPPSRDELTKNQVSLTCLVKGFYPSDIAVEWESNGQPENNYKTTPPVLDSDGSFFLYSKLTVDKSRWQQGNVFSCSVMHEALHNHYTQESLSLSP
light: B1 light
notes: mutation in both H chains; also called Ho Ab S337_07I; S337I
B8: GpH7-B3 variant S337_02A/GpL16-k0 (antibody, human IgG1, kappa)
heavy: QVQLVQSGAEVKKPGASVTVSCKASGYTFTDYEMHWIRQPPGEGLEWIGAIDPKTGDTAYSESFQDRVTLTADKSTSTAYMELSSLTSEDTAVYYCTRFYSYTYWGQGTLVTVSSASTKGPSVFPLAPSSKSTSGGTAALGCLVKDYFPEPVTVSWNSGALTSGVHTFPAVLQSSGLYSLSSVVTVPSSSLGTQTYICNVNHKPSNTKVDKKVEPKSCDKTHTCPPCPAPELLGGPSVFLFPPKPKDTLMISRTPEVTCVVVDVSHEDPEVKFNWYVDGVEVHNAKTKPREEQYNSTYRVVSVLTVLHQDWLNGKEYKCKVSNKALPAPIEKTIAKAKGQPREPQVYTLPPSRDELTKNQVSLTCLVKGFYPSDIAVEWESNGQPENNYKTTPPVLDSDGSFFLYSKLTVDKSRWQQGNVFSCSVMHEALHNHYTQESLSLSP
light: B1 light
notes: mutation in both H chains; also called Ho Ab S337_02A; S337A
B9: GpH7-B3 variant T335_10E/GpL16-k0 (antibody, human IgG1, kappa)
heavy: not shown
light: B1 light
notes: mutation in both H chains; also called Ho Ab T335_10E; T335E
B10: GpH7-B3 variant S337_06M/GpL16-k0 (antibody, human IgG1, kappa)
heavy: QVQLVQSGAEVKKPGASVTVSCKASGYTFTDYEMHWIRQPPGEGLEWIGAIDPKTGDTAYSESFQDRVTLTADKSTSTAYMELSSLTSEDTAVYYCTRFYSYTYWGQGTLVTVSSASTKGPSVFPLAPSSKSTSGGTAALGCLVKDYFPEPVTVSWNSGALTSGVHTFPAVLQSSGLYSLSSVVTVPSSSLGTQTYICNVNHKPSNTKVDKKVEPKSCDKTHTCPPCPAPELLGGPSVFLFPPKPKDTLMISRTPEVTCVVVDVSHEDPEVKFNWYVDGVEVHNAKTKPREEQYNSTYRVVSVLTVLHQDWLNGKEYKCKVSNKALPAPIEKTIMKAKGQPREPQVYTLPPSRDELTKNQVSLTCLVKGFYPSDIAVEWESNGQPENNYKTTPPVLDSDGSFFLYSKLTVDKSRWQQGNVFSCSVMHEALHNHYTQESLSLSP
light: B1 light
notes: mutation in both H chains; also called Ho Ab S337_06M; S337M
B11: GpH7-B3 variant S324_14T/GpL16-k0 (antibody, human IgG1, kappa)
heavy: not shown
light: B1 light
notes: mutation in both H chains; also called Ho Ab S324_14T; S324T
B12: GpH7-B3 variant S324_12R/GpL16-k0 (antibody, human IgG1, kappa)
heavy: not shown
light: B1 light
notes: mutation in both H chains; also called Ho Ab S324_12R; S324R
B13: GpH7-B3 variant T335_09D/GpL16-k0 (antibody, human IgG1, kappa)
heavy: not shown
light: B1 light
notes: mutation in both H chains; also called Ho Ab T335_09D; T335D
B14: GpH7-B3 variant T335_11K/GpL16-k0 (antibody, human IgG1, kappa)
heavy: not shown
light: B1 light
notes: mutation in both H chains; also called Ho Ab T335_11K; T335K
B15: GpH7-B3 variant S337_09D/GpL16-k0 (antibody, human IgG1, kappa)
heavy: not shown
light: B1 light
notes: mutation in both H chains; also called Ho Ab S337_09D; S337D
B16: GpH7-A5/GpH7-B3 variant S298_02A/GpL16-k0 (antibody, human IgG1, kappa)
heavy 1: not shown
heavy 2: not shown
light: B1 light
notes: mutation in one H chain only; also called He Ab S298_02A; S298A
B17: GpH7-B3 variant S324_15Y/GpL16-k0 (antibody, human IgG1, kappa)
heavy: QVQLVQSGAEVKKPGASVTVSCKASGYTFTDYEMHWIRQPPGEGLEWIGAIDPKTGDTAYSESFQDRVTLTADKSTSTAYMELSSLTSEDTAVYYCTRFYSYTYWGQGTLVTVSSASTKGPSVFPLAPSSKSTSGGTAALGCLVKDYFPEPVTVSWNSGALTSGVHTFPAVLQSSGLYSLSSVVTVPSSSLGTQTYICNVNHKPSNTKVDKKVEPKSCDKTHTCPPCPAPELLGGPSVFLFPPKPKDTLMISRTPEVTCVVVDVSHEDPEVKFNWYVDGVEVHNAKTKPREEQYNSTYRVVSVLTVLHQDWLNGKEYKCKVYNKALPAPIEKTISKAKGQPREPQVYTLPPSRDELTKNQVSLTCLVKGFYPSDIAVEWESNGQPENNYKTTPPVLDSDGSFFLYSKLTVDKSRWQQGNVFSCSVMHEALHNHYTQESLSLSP
light: B1 light
notes: mutation in both H chains; also called Ho Ab S324_15Y; S324Y
B18: GpH7-B3 variant S298_14T/GpL16-k0 (antibody, human IgG1, kappa)
heavy: not shown
light: B1 light
notes: mutation in both H chains; also called Ho Ab S298_14T; S298T
B19: GpH7-B3 variant T335_07I/GpL16-k0 (antibody, human IgG1, kappa)
heavy: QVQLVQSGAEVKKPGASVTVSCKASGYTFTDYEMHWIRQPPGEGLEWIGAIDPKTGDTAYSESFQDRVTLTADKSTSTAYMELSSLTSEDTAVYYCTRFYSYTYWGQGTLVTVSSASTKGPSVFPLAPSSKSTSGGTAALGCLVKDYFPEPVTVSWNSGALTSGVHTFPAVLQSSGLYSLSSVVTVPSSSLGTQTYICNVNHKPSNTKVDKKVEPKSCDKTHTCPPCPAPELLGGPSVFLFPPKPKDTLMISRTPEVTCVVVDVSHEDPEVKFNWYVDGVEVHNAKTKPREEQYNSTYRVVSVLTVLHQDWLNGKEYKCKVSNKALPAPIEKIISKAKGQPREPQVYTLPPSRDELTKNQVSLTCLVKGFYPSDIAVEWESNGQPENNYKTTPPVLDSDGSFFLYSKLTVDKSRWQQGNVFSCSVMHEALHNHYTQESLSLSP
light: B1 light
notes: mutation in both H chains; also called Ho Ab T335_07I; T335I
B20: GpH7-B3 variant S298_10E/GpL16-k0 (antibody, human IgG1, kappa)
heavy: not shown
light: B1 light
notes: mutation in both H chains; also called Ho Ab S298_10E; S298E
B21: GpH7-B3 variant S298_08L/GpL16-k0 (antibody, human IgG1, kappa)
heavy: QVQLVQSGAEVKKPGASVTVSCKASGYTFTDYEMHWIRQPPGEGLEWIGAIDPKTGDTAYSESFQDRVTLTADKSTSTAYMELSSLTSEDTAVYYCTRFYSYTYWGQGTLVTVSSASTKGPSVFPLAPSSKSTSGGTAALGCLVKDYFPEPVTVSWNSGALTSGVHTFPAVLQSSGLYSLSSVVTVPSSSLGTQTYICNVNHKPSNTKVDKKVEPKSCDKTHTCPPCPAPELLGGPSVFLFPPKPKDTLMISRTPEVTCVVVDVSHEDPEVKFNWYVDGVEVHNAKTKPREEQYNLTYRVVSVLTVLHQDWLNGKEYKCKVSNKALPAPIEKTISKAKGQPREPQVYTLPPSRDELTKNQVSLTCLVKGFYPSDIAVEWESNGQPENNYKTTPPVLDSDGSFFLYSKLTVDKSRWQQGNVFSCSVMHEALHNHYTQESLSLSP
light: B1 light
notes: mutation in both H chains; also called Ho Ab S298_08L; S298L
B22: GpH7-B3 variant S324_08L/GpL16-k0 (antibody, human IgG1, kappa)
heavy: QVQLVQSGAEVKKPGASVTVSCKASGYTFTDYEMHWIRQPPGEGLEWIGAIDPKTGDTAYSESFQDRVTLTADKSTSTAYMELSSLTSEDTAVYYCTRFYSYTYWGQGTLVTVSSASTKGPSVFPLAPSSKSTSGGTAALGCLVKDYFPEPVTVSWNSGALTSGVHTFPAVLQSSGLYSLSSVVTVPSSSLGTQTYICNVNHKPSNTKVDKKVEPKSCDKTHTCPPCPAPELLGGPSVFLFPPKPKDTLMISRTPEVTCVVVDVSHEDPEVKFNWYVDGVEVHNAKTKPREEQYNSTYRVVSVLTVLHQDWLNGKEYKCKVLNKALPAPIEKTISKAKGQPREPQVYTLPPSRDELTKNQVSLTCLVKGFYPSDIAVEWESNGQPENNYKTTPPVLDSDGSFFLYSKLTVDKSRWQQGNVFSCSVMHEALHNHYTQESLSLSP
light: B1 light
notes: mutation in both H chains; also called Ho Ab S324_08L; S324L
B23: GpH7-B3 variant S324_19Q/GpL16-k0 (antibody, human IgG1, kappa)
heavy: not shown
light: B1 light
notes: mutation in both H chains; also called Ho Ab S324_19Q; S324Q
B24: GpH7-B3 variant S324_16H/GpL16-k0 (antibody, human IgG1, kappa)
heavy: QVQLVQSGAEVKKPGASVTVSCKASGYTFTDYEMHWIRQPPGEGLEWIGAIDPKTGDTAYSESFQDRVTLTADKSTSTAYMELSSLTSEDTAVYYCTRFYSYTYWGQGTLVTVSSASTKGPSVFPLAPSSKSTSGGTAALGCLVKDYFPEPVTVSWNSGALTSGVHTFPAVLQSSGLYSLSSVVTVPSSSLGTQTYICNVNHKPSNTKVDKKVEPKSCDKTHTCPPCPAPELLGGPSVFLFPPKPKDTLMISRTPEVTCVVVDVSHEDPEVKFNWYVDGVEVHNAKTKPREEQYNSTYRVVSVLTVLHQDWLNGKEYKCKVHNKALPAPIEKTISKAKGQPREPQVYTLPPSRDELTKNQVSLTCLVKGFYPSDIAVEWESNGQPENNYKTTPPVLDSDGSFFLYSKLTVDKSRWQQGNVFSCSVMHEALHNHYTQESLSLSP
light: B1 light
notes: mutation in both H chains; also called Ho Ab S324_16H; S324H
B25: GpH7-B3 variant S337_12R/GpL16-k0 (antibody, human IgG1, kappa)
heavy: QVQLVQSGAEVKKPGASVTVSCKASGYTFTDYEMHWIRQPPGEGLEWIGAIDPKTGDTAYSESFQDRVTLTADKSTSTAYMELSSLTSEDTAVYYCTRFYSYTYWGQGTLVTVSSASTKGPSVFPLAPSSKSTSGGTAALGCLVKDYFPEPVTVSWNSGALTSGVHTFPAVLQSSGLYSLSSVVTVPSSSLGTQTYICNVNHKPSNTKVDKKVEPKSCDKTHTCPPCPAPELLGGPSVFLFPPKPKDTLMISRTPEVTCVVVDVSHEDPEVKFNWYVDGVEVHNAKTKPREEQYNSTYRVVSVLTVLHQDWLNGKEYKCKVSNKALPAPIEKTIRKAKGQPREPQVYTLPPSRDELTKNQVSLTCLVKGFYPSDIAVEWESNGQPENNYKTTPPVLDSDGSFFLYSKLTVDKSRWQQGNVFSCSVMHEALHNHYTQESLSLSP
light: B1 light
notes: mutation in both H chains; also called Ho Ab S337_12R; S337R
B26: GpH7-B3 variant Y300_12R/GpL16-k0 (antibody, human IgG1, kappa)
heavy: not shown
light: B1 light
notes: mutation in both H chains; also called Ho Ab Y300_12R; Y300R
B27: GpH7-B3 variant V266_19Q/GpL16-k0 (antibody, human IgG1, kappa)
heavy: not shown
light: B1 light
notes: mutation in both H chains; also called Ho Ab V266_19Q; V266Q
B28: GpH7-B3 variant S298_20W/GpL16-k0 (antibody, human IgG1, kappa)
heavy: not shown
light: B1 light
notes: mutation in both H chains; also called Ho Ab S298_20W; S298W
B29: GpH7-A5/GpH7-B3 variant S267_03V/GpL16-k0 (antibody, human IgG1, kappa)
heavy 1: not shown
heavy 2: not shown
light: B1 light
notes: mutation in one H chain only; also called He Ab S267_03V; S267V
B30: GpH7-B3 variant S337_15Y/GpL16-k0 (antibody, human IgG1, kappa)
heavy: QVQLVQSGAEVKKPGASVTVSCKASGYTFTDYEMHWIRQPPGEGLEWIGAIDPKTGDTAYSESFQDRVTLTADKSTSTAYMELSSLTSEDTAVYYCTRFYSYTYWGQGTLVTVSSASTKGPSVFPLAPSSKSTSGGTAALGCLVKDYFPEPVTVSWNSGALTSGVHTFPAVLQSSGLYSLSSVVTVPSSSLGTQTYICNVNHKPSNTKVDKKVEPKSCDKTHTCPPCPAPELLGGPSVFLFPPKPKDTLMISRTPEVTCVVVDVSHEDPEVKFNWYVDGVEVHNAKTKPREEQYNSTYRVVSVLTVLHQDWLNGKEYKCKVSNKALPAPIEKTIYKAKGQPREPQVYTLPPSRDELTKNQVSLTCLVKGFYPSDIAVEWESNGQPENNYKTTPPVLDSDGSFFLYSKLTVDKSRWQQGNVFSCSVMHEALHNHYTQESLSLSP
light: B1 light
notes: mutation in both H chains; also called Ho Ab S337_15Y; S337Y

Legend:
[1] = molecular target: T1, FcγRIa extracellular domain with C-terminal His tag (human, UniProt P12314 16-292); assay: SPR Biacore, relative FcγRIa binding vs GpH7-B3/GpL16-k0
T1 construct: extracellular domain; also called FcgRI; CD64; not shown: His tag at the C terminus
T1 sequence (P12314 16-292): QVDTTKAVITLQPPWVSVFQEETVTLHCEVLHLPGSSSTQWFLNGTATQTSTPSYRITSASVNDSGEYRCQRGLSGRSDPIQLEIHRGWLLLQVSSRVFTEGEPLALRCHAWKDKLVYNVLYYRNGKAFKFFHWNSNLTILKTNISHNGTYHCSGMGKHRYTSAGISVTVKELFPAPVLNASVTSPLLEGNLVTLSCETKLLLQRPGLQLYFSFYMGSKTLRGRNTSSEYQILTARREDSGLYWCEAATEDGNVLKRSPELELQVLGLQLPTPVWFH

[2] = molecular target: T1, FcγRIa extracellular domain with …; assay: SPR Biacore, relative FcγRIa binding vs GpH7-A5/GpH7-B3/GpL16-k0

Binder	Ho/Con_1a [1]	He/Con_1a [2]
B1	103 % of HoCon Ab (=100)	–
B2	106 % of HoCon Ab (=100)	–
B3	111 % of HoCon Ab (=100)	–
B4	106 % of HoCon Ab (=100)	–
B5	103 % of HoCon Ab (=100)	–
B6	–	101 % of HeCon Ab (=100)
B7	105 % of HoCon Ab (=100)	–
B8	103 % of HoCon Ab (=100)	–
B9	108 % of HoCon Ab (=100)	–
B10	102 % of HoCon Ab (=100)	–
B11	112 % of HoCon Ab (=100)	–
B12	101 % of HoCon Ab (=100)	–
B13	107 % of HoCon Ab (=100)	–
B14	103 % of HoCon Ab (=100)	–
B15	106 % of HoCon Ab (=100)	–
B16	–	107 % of HeCon Ab (=100)
B17	112 % of HoCon Ab (=100)	–
B18	106 % of HoCon Ab (=100)	–
B19	105 % of HoCon Ab (=100)	–
B20	106 % of HoCon Ab (=100)	–
B21	104 % of HoCon Ab (=100)	–
B22	103 % of HoCon Ab (=100)	–
B23	111 % of HoCon Ab (=100)	–
B24	111 % of HoCon Ab (=100)	–
B25	105 % of HoCon Ab (=100)	–
B26	96.5 % of HoCon Ab (=100)	–
B27	91.2 % of HoCon Ab (=100)	–
B28	71.5 % of HoCon Ab (=100)	–
B29	–	106 % of HeCon Ab (=100)
B30	104 % of HoCon Ab (=100)	–
